The source of these data is IntAct's records for PubMed 17932490.

B1: Serine/threonine-protein kinase 4 (Homo sapiens), Q13043 (parent)
chain: METVQLRNPPRRQLKKLDEDSLTKQPEEVFDVLEKLGEGSYGSVYKAIHKETGQIVAIKQVPVESDLQEIIKEISIMQQCDSPHVVKYYGSYFKNTDLWIVMEYCGAGSVSDIIRLRNKTLTEDEIATILQSTLKGLEYLHFMRKIHRDIKAGNILLNTEGHAKLADFGVAGQLTDTMAKRNTVIGTPFWMAPEVIQEIGYNCVADIWSLGITAIEMAEGKPPYADIHPMRAIFMIPTNPPPTFRKPELWSDNFTDFVKQCLVKSPEQRATATQLLQHPFVRSAKGVSILRDLINEAMDVKLKRQESQQREVDQDDEENSEEDEMDSGTMVRAVGDEMGTVRVASTMTDGANTMIEHDDTLPSQLGTMVINAEDEEEEGTMKRRDETMQPAKPSFLEYFEQKEKENQINSFGKSVPGPLKNSSDWKIPQDGDYEFLKSWTVEDLQKRLLALDPMMEQEIEEIRQKYQSKRQPILDAIEAKKRRQQNF

Variants of B1 are the subject of this assay. The note with it: with akt1_human AKT1, P31749.
Chain of akt1_human AKT1, P31749 (P31749 whole entry): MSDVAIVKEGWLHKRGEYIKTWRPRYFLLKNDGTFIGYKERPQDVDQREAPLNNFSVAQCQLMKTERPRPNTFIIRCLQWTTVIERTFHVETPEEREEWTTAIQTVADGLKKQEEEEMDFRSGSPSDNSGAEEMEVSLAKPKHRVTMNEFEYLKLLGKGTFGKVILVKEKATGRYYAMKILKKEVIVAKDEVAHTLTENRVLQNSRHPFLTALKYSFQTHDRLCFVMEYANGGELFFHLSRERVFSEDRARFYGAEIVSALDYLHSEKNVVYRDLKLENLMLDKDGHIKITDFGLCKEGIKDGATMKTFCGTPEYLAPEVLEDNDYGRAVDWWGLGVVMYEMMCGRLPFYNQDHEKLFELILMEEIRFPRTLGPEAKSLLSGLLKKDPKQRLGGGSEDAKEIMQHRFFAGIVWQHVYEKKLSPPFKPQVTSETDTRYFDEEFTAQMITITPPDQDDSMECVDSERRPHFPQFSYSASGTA
As for K59R, the “effect of a mutation on the interaction” value was “disrupting interaction”.
